These results are taken from US20170008934A1, “BACTERIALLY FORMED MICROCIN S, A NEW ANTIMICROBIAL PEPTIDE, EFFECTIVE AGAINST PATHOGENIC MICROORGANISMS, E.G. ENTEROHEMORRHAGIC ESCHERICHIA COLI (EHEC)” (SYMBIOGRUPPE GmbH & CO. KG, priority 2011, published 2017).

The subject of the assay is EHEC (86-24 O157:H7, O104:H4, O128:H2). Nature of the assay: in vitro adherence assay: inhibition of EHEC adherence to human intestinal epithelial cells (LOVO) after pre-incubation with test strains. Format: cell-based. The conditions noted are these: ESBL-producing O104:H4 outbreak strain, O128:H2 and O157:H7 EHEC isolates; FIG. 5 (tested as producer strain E. coli G3/10). Here is the method:
Enterohemorrhagic E. coli adhere to intestinal epithelial cells. In a second experiment, confluent monolayers of LOVO cells were pre-incubated with bacterial test strains at a multiplicity of infection (MOI) of 100:1 E. coli to host cells. The influence of EcN and E. coli G3/10 was tested. After two hours of incubation, cells were washed and infected with EHEC using an MOI of 100:1 EHEC to host cells. Three EHEC isolates were tested as indicator strains using the in vitro adherence assay. We used HUS-associated EHEC 86-24 serotype O157:H7 and two different isolates of the EHEC O104:H4 outbreak strain as well as an EHEC O128:H2 patient isolate. Since the EHEC O104:H4 isolates are ESBL producers, medical treatment is limited. Adherence efficiency in % are expressed as adherence of EHEC relative to adherence without any pre-incubation (negative control), which is set 100%. The data are the mean±SD of three separate experiments in duplicate wells.

B1: microcin S: new class IIa microcin, antimicrobial polypeptide of E. coli G3/10, SEQ ID NO: 7 (precursor with leader SEQ ID NO: 6) (protein, listed as Escherichia coli)
chain: NANSNYEGGGSRSRNTGARNSLGRNAPTHIYSDPSTVKCANAVFSGMVGGAIKGGPVGMTRGTIGGAVIGQCLSGGGNGNGGGNRAGSSNCSGSNVGGTCSR
Regarding B1, the “inhibitory effect of EHEC” value was “shows an inhibitory effect of EHEC”.
